Test results as given in publication PMC10393071 (2023).
Changes are numbered by the printed parent chain.

Assays:
[1] = biological target: T1, BMPR-1A/BMPR-1B (aortic SMC) (Homo sapiens, UniProt P36894); test: FITC-ligand cell membrane binding, Scatchard
T1 chain 1: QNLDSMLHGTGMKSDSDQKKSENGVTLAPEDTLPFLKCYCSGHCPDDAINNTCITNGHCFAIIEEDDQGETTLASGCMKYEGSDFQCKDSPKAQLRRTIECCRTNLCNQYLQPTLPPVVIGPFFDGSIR
T1 chain 2: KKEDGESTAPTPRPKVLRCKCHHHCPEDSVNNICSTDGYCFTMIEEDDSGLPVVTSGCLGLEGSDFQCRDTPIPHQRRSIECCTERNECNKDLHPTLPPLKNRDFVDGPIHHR

BMPR-1A/BMPR-1B = biological target: T2, BMPR-1A/BMPR-1B (Mus musculus, UniProt P36895); test: FITC-ligand binding to transfected 293T, Scatchard
T2 chain 1: T1 chain 1 with S16L, S21P, A74T
T2 chain 2: T1 chain 2 with V16I, L51M, N102D, R113K

BMPR-1A = biological target: T3, BMPR-1A (Mus musculus, UniProt P36895); test: FITC-ligand binding to transfected 293T, Scatchard
T3 chain: T1 chain 1 with S16L, S21P, A74T

BMPR-2 = biological target: T4, BMPR-2 (Mus musculus, UniProt O35607); test: FITC-ligand binding to transfected 293T, Scatchard
T4 chain: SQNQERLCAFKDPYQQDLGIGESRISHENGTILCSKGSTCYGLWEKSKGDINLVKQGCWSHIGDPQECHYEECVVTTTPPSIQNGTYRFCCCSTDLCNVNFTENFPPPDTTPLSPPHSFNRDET

BMPR-1B = biological target: T5, BMPR-1B (Mus musculus, UniProt P36898); test: FITC-ligand binding to transfected 293T, Scatchard
T5 chain: T1 chain 2 with V16I, L51M, N102D, R113K

[2] = biological target: T6, BMPR-1B (aortic SMC, BMPR-1A siRNA) (Mus musculus, UniProt P36898); test: FITC-ligand cell membrane binding, Scatchard
T6 chain: T1 chain 2 with V16I, L51M, N102D, R113K

[3] = biological target: T7, BMPR-1A/BMPR-1B (aortic SMC) (Mus musculus, UniProt P36895); test: FITC-ligand cell membrane binding, Scatchard
T7 chain 1: T1 chain 1 with S16L, S21P, A74T
T7 chain 2: T1 chain 2 with V16I, L51M, N102D, R113K

[4] = biological target: T8, BMPR-1A (aortic SMC, BMPR-1B siRNA) (Mus musculus, UniProt P36895); test: FITC-ligand cell membrane binding, Scatchard
T8 chain: T1 chain 1 with S16L, S21P, A74T

B1: EDN (protein)
chain: KPPQFTWAQWFETQHINMTSQQCTNAMQVINNYQRRCKNQNTFLLTTFANVVNVCGNPNMTCPSNKTRKNCHHSGSQVPLIHCNLTTPSPQNISNCRYAQTPANMFYIVACDNRDQRRDPPQYPVVPVHLDRII
Kd [1]: 11.6 nM

B2: mEar1 (protein)
chain: LGQTPSQKFAIQHINNNTNLQCNVEMMRINRARRTCKGLNTFLHTSFANAVGVCGNPSGLCSDKRSQNCHNSSSRVHITVCNITSRATNYTQCRYQSRRSLEYYTVACDPRTPQDSPMYPVVPVHLDGTF
Kd (BMPR-1A/BMPR-1B): 15.5 nM
Kd (BMPR-1A): 10.6 nM
Kd (BMPR-2): 6.09 nM
Kd (BMPR-1B): 9.45 nM
Kd [2]: 11.1 nM
Kd [3]: 15.8 nM
Kd [4]: 9.14 nM

B3: ECP (protein)
chain: RPPQFTRAQWFAIQHISLNPPRCTIAMRAINNYRWRCKNQNTFLRTTFANVVNVCGNQSIRCPHNRTLNNCHRSRFRVPLLHCDLINPGAQNISNCTYADRPGRRFYVVACDNRDPRDSPRYPVVPVHLDTTI
Kd [1]: 14.9 nM
